Source: US20260049138A1 (Chugai, published 2026)

What was measured:
human CD154 = molecular target: T1, human CD154 (human, UniProt P29965 113-261, limits assumed, biotin-labeled); experiment: ECL competition, CD3ε[+]: CD3ε homodimer added as competitor [2]
T1 construct: also called biotin-labeled human CD154; biotinylated human CD154
T1 sequence (looked up): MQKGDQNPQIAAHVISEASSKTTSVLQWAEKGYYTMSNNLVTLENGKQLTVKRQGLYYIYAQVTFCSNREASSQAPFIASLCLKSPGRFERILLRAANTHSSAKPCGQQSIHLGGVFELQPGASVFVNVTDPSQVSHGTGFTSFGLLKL
Description: Next, each obtained IgG was evaluated for its binding to CD3 and human CD154 at the same time by the competition method (electrochemiluminescence method (ECL method)).
A TBST solution containing 0.5% BSA (referred to as a blocking solution; the TBST solution was TBS (manufactured by Takara Bio Inc.) supplemented with 0.1% Tween 20) was added at 150 μL/well to streptavidin plate (MSD K.K.), and the plate was incubated at room temperature for 1 hour or longer. After removal of the blocking solution, each well was washed three times with 250 μL of a TBST solution. The antibody-antigen complex solution was added thereto at 50 μL/well, and the plate was incubated at room temperature for 1 hour so that the biotinylated antigen-antibody-detection sulfo-tag antibody complex solution bound via the biotinylated antigen to the streptavidin plate. After removal of the antibody-antigen complex solution, each well was washed three times with a TBST solution, and a solution of 4×READ buffer (MSD K.K.) diluted 2-fold with water was added thereto at 150 μL/well, followed by the detection of the luminescence signal of the sulfo-tag using Sector Imager 2400 (MSD K.K.).

CD3ε homodimer protein [1] = molecular target: T2, CD3ε homodimer protein (human, UniProt P07766 23-126, limits assumed); experiment: SPR (Biacore T200), one-arm antibody as analyte over immobilised CD3ε homodimer protein, single-cycle kinetics
T2 construct: also called human CD3ε homodimer protein
T2 sequence (P07766 23-126 limits assumed): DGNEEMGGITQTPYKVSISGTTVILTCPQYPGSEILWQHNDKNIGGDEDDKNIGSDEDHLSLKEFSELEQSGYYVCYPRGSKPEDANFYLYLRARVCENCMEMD

CD3ε homodimer protein [2] = molecular target: T3, CD3ε homodimer protein (human, UniProt P07766 23-126, limits assumed); experiment: SPR
T3 construct: also called CD3 (CD3ε)
T3 sequence (P07766 23-126 limits assumed): as above
Description: Each one-amino acid altered form constructed, expressed, and purified in the paragraph (6-2) was evaluated using Biacore T200 (GE Healthcare Japan Corp.). An appropriate amount of CD3ε homodimer protein was immobilized onto Sensor chip CM4 (GE Healthcare Japan Corp.) by the amine coupling method. Then, the antibody having an appropriate concentration was injected thereto as an analyte and allowed to interact with the CD3ε homodimer protein on the sensor chip. Then, the sensor chip was regenerated by the injection of 10 mmol/L glycine-HCl (pH 1.5). The assay was conducted at 25° C., and HBS-EP+ (GE Healthcare Japan Corp.) was used as a running buffer. […] Each parameter was calculated using Biacore T200 Evaluation Software (GE Healthcare Japan Corp.).
Specifically, when the amount of the GLS3000-containing antibody bound was defined as X and the amount of the L chain one-amino acid altered form bound was defined as Y, a value of Z (ratio of amounts bound)=Y/X was used.

B1: 154R5F08#1 one-arm antibody (antibody, human IgG1, kappa, L234A L235A, N297A)
heavy: QVQLVESGGGLVQPGRSLRLSCAASGFTFSNAWMHWVRQAPGKGLEWVAQIKDKGNQYATYYAESVKGRFTISRDDSKNSIYLQMNSLKTEDTAVYYCRYVHYGTYFFALPAFGVDIWGQGTTVTVSSASTKGPSVFPLAPSSKSTSGGTAALGCLVKDYFPEPVTVSWNSGALTSGVHTFPAVLQSSGLYSLSSVVTVPSSSLGTQTYICNVNHKPSNTKVDKKVEPKSCDKTHTCPPCPAPEAAGGPSVFLFPPKPKDTLMISRTPEVTCVVVDVSHEDPEVKFNWYVDGVEVHNAKTKPREEQYASTYRVVSVLTVLHQDWLNGKEYKCKVSNKALPAPIEKTISKAKGQPREPQVYTLPPSRCELTKNQVSLSCAVKGFYPSDIAVEWESNGQPENNYKTTPPVLDSDGSFFLVSKLTVDKSRWQQGNVFSCSVMHEALHNHYTQKSLSLSPDYKDDDDK
chain: EPKSSDKTHTCPPCPAPELLGGPSVFLFPPKPKDTLMISRTPEVTCVVVDVSHEDPEVKFNWYVDGVEVHNAKTKPREEQYNSTYRVVSVLTVLHQDWLNGKEYKCKVSNKALPAPIEKTISKAKGQPREPQVCTLPPSRDELTKNQVSLWCLVKGFYPSDIAVEWESNGQPENNYKTTPPVLDSDGSFFLYSKLTVDKSRWQQGNVFSCSVMHEALHNRYTQKSLSLSP
light: DIVMTQSPLSLPVTPGEPASISCRSSQSLVHSNRNTYLHWYQQKPGQAPRLLIYKVSNRFSGVPDRFSGSGSGTDFTLKISRVEAEDVGVYYCGQGTQVPYTFGQGTKLEIKRTVAAPSVFIFPPSDEQLKSGTASVVCLLNNFYPREAKVQWKVDNALQSGNSQESVTEQDSKDSTYSLSSTLTLSKADYEKHKVYACEVTHQGLSSPVTKSFNRGEC
notes: As m48
relative ECL reaction (to no antigen coating) (human CD154): 13

B2: One-arm antibody: NNS6f54 (CE115HA340 with FEWVGW inserted between Kabat positions 99 and 100) / Kn010G3 / GLS3000-kappa (antibody)
chain 1: QVQLVESGGGLVQPGRSLRLSCAASGFTFSNAWMHWVRQAPGKGLEWVAQIKDKSNNYATYYAESVKGRFTISRDDSKNSIYLQMNSLKTEDTAVYYCRYVHYAAFEWVGWYYGVDAWGQGTTVTVSSASTKGPSVFPLAPSSKSTSGGTAALGCLVKDYFPEPVTVSWNSGALTSGVHTFPAVLQSSGLYSLSSVVTVPSSSLGTQTYICNVNHKPSNTKVDKKVEPKSCDKTHTCPPCPAPEAAGGPSVFLFPPKPKDTLMISRTPEVTCVVVDVSHEDPEVKFNWYVDGVEVHNAKTKPREEQYASTYRVVSVLTVLHQDWLNGKEYKCKVSNKALPAPIEKTISKAKGQPREPQVYTLPPSRCELTKNQVSLSCAVKGFYPSDIAVEWESNGQPENNYKTTPPVLDSDGSFFLVSKLTVDKSRWQQGNVFSCSVMHEALHNHYTQKSLSLSPDYKDDDDK
chain 2: EPKSSDKTHTCPPCPAPELLGGPSVFLFPPKPKDTLMISRTPEVTCVVVDVSHEDPEVKFNWYVDGVEVHNAKTKPREEQYNSTYRVVSVLTVLHQDWLNGKEYKCKVSNKALPAPIEKTISKAKGQPREPQVCTLPPSRDELTKNQVSLWCLVKGFYPSDIAVEWESNGQPENNYKTTPPVLDSDGSFFLYSKLTVDKSRWQQGNVFSCSVMHEALHNRYTQKSLSLSP
chain 3: DIVMTQSPLSLPVTPGEPASISCRSSQSLVHSNRNTYLHWYQQKPGQAPRLLIYKVSNRFSGVPDRFSGSGSGTDFTLKISRVEAEDVGVYYCGQGTQVPYTFGQGTKLEIKRTVAAPSVFIFPPSDEQLKSGTASVVCLLNNFYPREAKVQWKVDNALQSGNSQESVTEQDSKDSTYSLSSTLTLSKADYEKHKVYACEVTHQGLSSPVTKSFNRGEC
Kd (CD3ε homodimer protein [1]): 29 nM

B3: CE115HA000 / GLS3000 one-arm antibody (unaltered) (antibody, human IgG1, kappa, L234A L235A, N297A)
heavy: QVQLVESGGGVVQPGRSLRLSCAASGFTFSNAWMHWVRQAPGKGLEWVAQIKAKSNNYATYYAESVKGRFTISRDDSKNSLYLQMNSLKTEDTAVYYCRYVHYGAYYGVDAWGQGTTVTVSSASTKGPSVFPLAPSSKSTSGGTAALGCLVKDYFPEPVTVSWNSGALTSGVHTFPAVLQSSGLYSLSSVVTVPSSSLGTQTYICNVNHKPSNTKVDKKVEPKSCDKTHTCPPCPAPEAAGGPSVFLFPPKPKDTLMISRTPEVTCVVVDVSHEDPEVKFNWYVDGVEVHNAKTKPREEQYASTYRVVSVLTVLHQDWLNGKEYKCKVSNKALPAPIEKTISKAKGQPREPQVYTLPPSRCELTKNQVSLSCAVKGFYPSDIAVEWESNGQPENNYKTTPPVLDSDGSFFLVSKLTVDKSRWQQGNVFSCSVMHEALHNHYTQKSLSLSPDYKDDDDK
chain: EPKSSDKTHTCPPCPAPELLGGPSVFLFPPKPKDTLMISRTPEVTCVVVDVSHEDPEVKFNWYVDGVEVHNAKTKPREEQYNSTYRVVSVLTVLHQDWLNGKEYKCKVSNKALPAPIEKTISKAKGQPREPQVCTLPPSRDELTKNQVSLWCLVKGFYPSDIAVEWESNGQPENNYKTTPPVLDSDGSFFLYSKLTVDKSRWQQGNVFSCSVMHEALHNRYTQKSLSLSP
light: DIVMTQSPLSLPVTPGEPASISCRSSQSLVHSNRNTYLHWYQQKPGQAPRLLIYKVSNRFSGVPDRFSGSGSGTDFTLKISRVEAEDVGVYYCGQGTQVPYTFGQGTKLEIKRTVAAPSVFIFPPSDEQLKSGTASVVCLLNNFYPREAKVQWKVDNALQSGNSQESVTEQDSKDSTYSLSSTLTLSKADYEKHKVYACEVTHQGLSSPVTKSFNRGEC
notes: All L chain altered forms m3-m332 have this format; for them only VH and VL are written out; also called GLS3000-containing antibody
KD ratio to GLS3000 (CD3ε homodimer protein [2]): 0.98

B4: One-arm antibody: NNS6f47 (CE115HA340 with HFMWWG inserted between Kabat positions 99 and 100) / Kn010G3 / GLS3000-kappa (antibody)
chain 1: QVQLVESGGGLVQPGRSLRLSCAASGFTFSNAWMHWVRQAPGKGLEWVAQIKDKSNNYATYYAESVKGRFTISRDDSKNSIYLQMNSLKTEDTAVYYCRYVHYAAHFMWWGYYGVDAWGQGTTVTVSSASTKGPSVFPLAPSSKSTSGGTAALGCLVKDYFPEPVTVSWNSGALTSGVHTFPAVLQSSGLYSLSSVVTVPSSSLGTQTYICNVNHKPSNTKVDKKVEPKSCDKTHTCPPCPAPEAAGGPSVFLFPPKPKDTLMISRTPEVTCVVVDVSHEDPEVKFNWYVDGVEVHNAKTKPREEQYASTYRVVSVLTVLHQDWLNGKEYKCKVSNKALPAPIEKTISKAKGQPREPQVYTLPPSRCELTKNQVSLSCAVKGFYPSDIAVEWESNGQPENNYKTTPPVLDSDGSFFLVSKLTVDKSRWQQGNVFSCSVMHEALHNHYTQKSLSLSPDYKDDDDK
chain 2: EPKSSDKTHTCPPCPAPELLGGPSVFLFPPKPKDTLMISRTPEVTCVVVDVSHEDPEVKFNWYVDGVEVHNAKTKPREEQYNSTYRVVSVLTVLHQDWLNGKEYKCKVSNKALPAPIEKTISKAKGQPREPQVCTLPPSRDELTKNQVSLWCLVKGFYPSDIAVEWESNGQPENNYKTTPPVLDSDGSFFLYSKLTVDKSRWQQGNVFSCSVMHEALHNRYTQKSLSLSP
chain 3: DIVMTQSPLSLPVTPGEPASISCRSSQSLVHSNRNTYLHWYQQKPGQAPRLLIYKVSNRFSGVPDRFSGSGSGTDFTLKISRVEAEDVGVYYCGQGTQVPYTFGQGTKLEIKRTVAAPSVFIFPPSDEQLKSGTASVVCLLNNFYPREAKVQWKVDNALQSGNSQESVTEQDSKDSTYSLSSTLTLSKADYEKHKVYACEVTHQGLSSPVTKSFNRGEC
Kd (CD3ε homodimer protein [1]): 31 nM

B5: One-arm antibody: NNS6f51 (CE115HA340 with GFLVLW inserted between Kabat positions 99 and 100) / Kn010G3 / GLS3000-kappa (antibody)
chain 1: QVQLVESGGGLVQPGRSLRLSCAASGFTFSNAWMHWVRQAPGKGLEWVAQIKDKSNNYATYYAESVKGRFTISRDDSKNSIYLQMNSLKTEDTAVYYCRYVHYAAGFLVLWYYGVDAWGQGTTVTVSSASTKGPSVFPLAPSSKSTSGGTAALGCLVKDYFPEPVTVSWNSGALTSGVHTFPAVLQSSGLYSLSSVVTVPSSSLGTQTYICNVNHKPSNTKVDKKVEPKSCDKTHTCPPCPAPEAAGGPSVFLFPPKPKDTLMISRTPEVTCVVVDVSHEDPEVKFNWYVDGVEVHNAKTKPREEQYASTYRVVSVLTVLHQDWLNGKEYKCKVSNKALPAPIEKTISKAKGQPREPQVYTLPPSRCELTKNQVSLSCAVKGFYPSDIAVEWESNGQPENNYKTTPPVLDSDGSFFLVSKLTVDKSRWQQGNVFSCSVMHEALHNHYTQKSLSLSPDYKDDDDK
chain 2: EPKSSDKTHTCPPCPAPELLGGPSVFLFPPKPKDTLMISRTPEVTCVVVDVSHEDPEVKFNWYVDGVEVHNAKTKPREEQYNSTYRVVSVLTVLHQDWLNGKEYKCKVSNKALPAPIEKTISKAKGQPREPQVCTLPPSRDELTKNQVSLWCLVKGFYPSDIAVEWESNGQPENNYKTTPPVLDSDGSFFLYSKLTVDKSRWQQGNVFSCSVMHEALHNRYTQKSLSLSP
chain 3: DIVMTQSPLSLPVTPGEPASISCRSSQSLVHSNRNTYLHWYQQKPGQAPRLLIYKVSNRFSGVPDRFSGSGSGTDFTLKISRVEAEDVGVYYCGQGTQVPYTFGQGTKLEIKRTVAAPSVFIFPPSDEQLKSGTASVVCLLNNFYPREAKVQWKVDNALQSGNSQESVTEQDSKDSTYSLSSTLTLSKADYEKHKVYACEVTHQGLSSPVTKSFNRGEC
Kd (CD3ε homodimer protein [1]): 31 nM

B6: 154R5F08#3 one-arm antibody (antibody, human IgG1, kappa, L234A L235A, N297A)
heavy: QVQLVESGGGLVQPGRSLRLSCAASGFTFSNAWMHWVRQAPGKGLEWVAQIKDKGNQYATYYAESVKGRYTISRDDSKNSIYLQMNSLKTEDTAVYYCRYVHYGTYFFALPAFGVDIWGQGTTVTVSSASTKGPSVFPLAPSSKSTSGGTAALGCLVKDYFPEPVTVSWNSGALTSGVHTFPAVLQSSGLYSLSSVVTVPSSSLGTQTYICNVNHKPSNTKVDKKVEPKSCDKTHTCPPCPAPEAAGGPSVFLFPPKPKDTLMISRTPEVTCVVVDVSHEDPEVKFNWYVDGVEVHNAKTKPREEQYASTYRVVSVLTVLHQDWLNGKEYKCKVSNKALPAPIEKTISKAKGQPREPQVYTLPPSRCELTKNQVSLSCAVKGFYPSDIAVEWESNGQPENNYKTTPPVLDSDGSFFLVSKLTVDKSRWQQGNVFSCSVMHEALHNHYTQKSLSLSPDYKDDDDK
chain: EPKSSDKTHTCPPCPAPELLGGPSVFLFPPKPKDTLMISRTPEVTCVVVDVSHEDPEVKFNWYVDGVEVHNAKTKPREEQYNSTYRVVSVLTVLHQDWLNGKEYKCKVSNKALPAPIEKTISKAKGQPREPQVCTLPPSRDELTKNQVSLWCLVKGFYPSDIAVEWESNGQPENNYKTTPPVLDSDGSFFLYSKLTVDKSRWQQGNVFSCSVMHEALHNRYTQKSLSLSP
light: DIVMTQSPLSLPVTPGEPASISCRSSQSLVHSNRNTYLHWYQQKPGQAPRLLIYKVSNRFSGVPDRFSGSGSGTDFTLKISRVEAEDVGVYYCGQGTQVPYTFGQGTKLEIKRTVAAPSVFIFPPSDEQLKSGTASVVCLLNNFYPREAKVQWKVDNALQSGNSQESVTEQDSKDSTYSLSSTLTLSKADYEKHKVYACEVTHQGLSSPVTKSFNRGEC
notes: As m48
relative ECL reaction (to no antigen coating) (human CD154): 10

B7: GLS3000 L33P (antibody, name in Kabat numbering, V domains shown)
VH: QVQLVESGGGVVQPGRSLRLSCAASGFTFSNAWMHWVRQAPGKGLEWVAQIKAKSNNYATYYAESVKGRFTISRDDSKNSLYLQMNSLKTEDTAVYYCRYVHYGAYYGVDAWGQGTTVTVSS
VL: DIVMTQSPLSLPVTPGEPASISCRSSQSLVHSNRNTYPHWYQQKPGQAPRLLIYKVSNRFSGVPDRFSGSGSGTDFTLKISRVEAEDVGVYYCGQGTQVPYTFGQGTKLEIK
notes: one-arm, rest as m2
KD ratio to GLS3000 (CD3ε homodimer protein [2]): 32.7
